Data published in patent US20230357420A1 (VILLARIS THERAPEUTICS, published 2023).
Numbering of substitutions follows the chain as printed. Blank lines part the entries; values can stand above or below the binder they belong to.

Key:
[1] = molecular target: T1, Human BCAM protein (human, UniProt P50895 32-547, limits assumed); test: binding ELISA on human BCAM protein, IgG at log10 about 1.1 to 3.0 nM, OD450nm
T1 construct: Protein used in ELISA; also called BCAM (ELISA antigen)
T1 sequence: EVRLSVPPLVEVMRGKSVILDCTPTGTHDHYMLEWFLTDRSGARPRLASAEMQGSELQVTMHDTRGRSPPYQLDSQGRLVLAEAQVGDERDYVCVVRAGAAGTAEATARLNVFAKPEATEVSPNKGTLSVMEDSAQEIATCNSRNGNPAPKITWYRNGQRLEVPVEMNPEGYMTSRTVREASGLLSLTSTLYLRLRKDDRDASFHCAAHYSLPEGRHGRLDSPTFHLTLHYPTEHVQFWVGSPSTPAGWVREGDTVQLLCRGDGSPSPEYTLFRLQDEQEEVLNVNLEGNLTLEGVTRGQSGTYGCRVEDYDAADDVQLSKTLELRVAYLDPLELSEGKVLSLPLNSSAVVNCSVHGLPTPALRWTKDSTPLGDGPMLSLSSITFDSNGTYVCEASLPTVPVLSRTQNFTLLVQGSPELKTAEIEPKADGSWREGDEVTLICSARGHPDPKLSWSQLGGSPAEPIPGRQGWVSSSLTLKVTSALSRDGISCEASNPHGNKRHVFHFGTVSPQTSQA

[2] = molecular target: T2, Human CD122 (human, UniProt P14784 27-551); test: cell-based or functional assay
T2 sequence: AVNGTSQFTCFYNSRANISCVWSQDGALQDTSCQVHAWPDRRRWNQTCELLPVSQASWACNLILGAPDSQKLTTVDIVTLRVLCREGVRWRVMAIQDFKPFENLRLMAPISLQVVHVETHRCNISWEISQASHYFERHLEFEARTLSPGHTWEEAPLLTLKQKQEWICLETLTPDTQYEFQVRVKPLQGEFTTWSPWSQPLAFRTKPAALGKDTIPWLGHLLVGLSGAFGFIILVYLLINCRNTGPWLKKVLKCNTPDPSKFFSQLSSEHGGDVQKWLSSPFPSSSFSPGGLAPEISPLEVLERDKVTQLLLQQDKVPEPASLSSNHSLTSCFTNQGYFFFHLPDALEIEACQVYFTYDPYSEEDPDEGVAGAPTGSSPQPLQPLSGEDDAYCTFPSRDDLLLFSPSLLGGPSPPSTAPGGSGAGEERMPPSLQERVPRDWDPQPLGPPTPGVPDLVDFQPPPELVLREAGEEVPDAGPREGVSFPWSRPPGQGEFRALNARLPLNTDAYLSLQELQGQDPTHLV

[3] = molecular target: T3, Human CILP2 protein (human, UniProt Q8IUL8 21-1156, limits assumed); test: BIACORE SPR, Fab at 62.5, 125, 250, 500 and 1000 nM on human CILP2 protein; Rmax
T3 construct: also called cartilage intermediate layer protein 2
T3 sequence (looked up): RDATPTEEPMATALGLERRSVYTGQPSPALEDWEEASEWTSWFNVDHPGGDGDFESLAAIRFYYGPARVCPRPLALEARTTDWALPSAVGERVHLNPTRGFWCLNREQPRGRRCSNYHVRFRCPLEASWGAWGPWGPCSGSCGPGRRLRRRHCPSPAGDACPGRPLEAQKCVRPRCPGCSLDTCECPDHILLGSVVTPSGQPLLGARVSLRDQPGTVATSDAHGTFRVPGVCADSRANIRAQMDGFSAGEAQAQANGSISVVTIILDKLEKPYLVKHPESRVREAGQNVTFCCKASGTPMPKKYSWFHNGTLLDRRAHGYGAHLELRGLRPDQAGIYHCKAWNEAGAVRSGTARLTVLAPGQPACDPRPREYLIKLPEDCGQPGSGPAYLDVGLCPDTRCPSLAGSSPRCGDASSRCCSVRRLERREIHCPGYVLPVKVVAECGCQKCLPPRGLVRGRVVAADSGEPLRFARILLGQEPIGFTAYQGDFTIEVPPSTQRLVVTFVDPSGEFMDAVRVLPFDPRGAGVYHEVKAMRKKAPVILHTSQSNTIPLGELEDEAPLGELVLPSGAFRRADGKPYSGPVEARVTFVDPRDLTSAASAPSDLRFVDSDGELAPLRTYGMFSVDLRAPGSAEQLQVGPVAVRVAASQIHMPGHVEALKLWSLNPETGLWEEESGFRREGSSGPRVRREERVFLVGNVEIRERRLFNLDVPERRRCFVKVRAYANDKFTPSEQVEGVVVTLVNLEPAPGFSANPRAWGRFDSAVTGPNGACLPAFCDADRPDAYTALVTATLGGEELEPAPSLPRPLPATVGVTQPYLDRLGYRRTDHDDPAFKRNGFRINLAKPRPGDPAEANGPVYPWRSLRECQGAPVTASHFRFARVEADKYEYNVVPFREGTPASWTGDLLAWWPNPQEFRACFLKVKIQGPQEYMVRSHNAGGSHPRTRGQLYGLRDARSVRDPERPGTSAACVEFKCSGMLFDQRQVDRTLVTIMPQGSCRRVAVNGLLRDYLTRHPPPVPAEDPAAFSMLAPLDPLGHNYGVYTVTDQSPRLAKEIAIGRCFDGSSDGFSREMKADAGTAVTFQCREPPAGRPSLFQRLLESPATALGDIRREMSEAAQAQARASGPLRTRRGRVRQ

[4] = molecular target: T4, Human CD122 His tagged (human, UniProt P14784 27-240); test: Biacore SPR, Fab
T4 construct: also called hCD122; monomeric antigen; not shown: His tag
T4 sequence: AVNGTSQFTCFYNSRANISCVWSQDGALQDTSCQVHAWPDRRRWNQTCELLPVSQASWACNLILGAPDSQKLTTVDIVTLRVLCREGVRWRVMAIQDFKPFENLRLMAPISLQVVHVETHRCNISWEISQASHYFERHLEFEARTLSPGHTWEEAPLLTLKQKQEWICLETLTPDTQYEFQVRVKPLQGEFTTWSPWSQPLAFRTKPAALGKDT

[5] = molecular target: T5, Rhesus CD122 His tag (rhesus monkey, UniProt Q38J85 27-240 (cynomolgus entry)); test: Biacore SPR, Fab
T5 construct: also called rhCD122; cynomolgus and/or rhesus monkey CD122 His tag; not shown: His tag
T5 sequence: T4 sequence with Q7R, A66T, T74A, L83M, V92M, E127K, L158M

[6] = molecular target: T4, Human CD122 His tagged; test: Biacore, Fab affinity and kinetics on hCD122
[7] = molecular target: T6, Human neudesin protein (human, UniProt Q9UMX5 32-172); test: BIACORE SPR, Fab at 62.5, 125, 250, 500 and 1000 nM on human neudesin protein; Rmax
T6 construct: also called NENF

[8] = molecular target: T5, Rhesus CD122 His tag; test: Biacore SPR, Fab, 1:1 binding
[9] = molecular target: T4, Human CD122 His tagged; test: Biacore SPR, Fab, 1:1 binding

T6 sequence (Q9UMX5 32-172 limits assumed): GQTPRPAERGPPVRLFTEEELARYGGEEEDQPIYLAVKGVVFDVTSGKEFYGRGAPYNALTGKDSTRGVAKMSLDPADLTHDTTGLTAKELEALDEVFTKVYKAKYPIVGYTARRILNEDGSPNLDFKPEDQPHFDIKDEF

binding result [1]: no binding (tested: 1000 nM (log10 3.0)) | IC50, IL-15-induced CD4+ T cell accumulation [2]: 2.1 µg/mL | IC50, IL-15-induced skin-resident CD8+ T cell accumulation [2]: 1.9 µg/mL | fold improvement of potency over VillMab-1, IL-15 stimulated M07e assay [2]: ~2 fold
B1: MAB05 (antibody, V domains shown)
VH: EVQLLESGGGLVQPGGSLRLSCAASGFTVTSYAVHWVRQAPGKGLEWLGVIWSGGSTDYNAAFISRLTISKDNSKNTVYFQMNSLRAEDTAVYYCARAGDANYDGFAYWGQGTLVTVSS
VL: DIQMTQSPSSLSASVGDRVTITCQASQSVSFLYWYQQRPGKAPRLLIYDTSNLASGVPSRFSGSGSGTSYTFTISSLQPEDIATYYCQQWSTYPLTFGQGTKVEIK
notes: also called Mab5; clone 05

binding result [3]: no binding (tested: 1000 nM) | Kd [4]: 5.54 nM | Kd [5]: 4.47 nM | Kd [6]: 5.5 nM | koff [6]: 0.0034 s⁻¹ | kon [6]: 610000 M⁻¹ s⁻¹ | binding result [7]: no binding (tested: 1000 nM)
B2: FAB15 (Fab, V domains shown)
VH: B1 VH with T28S, A33G, V37I
VL: B1 VL with Q27S, L32M
notes: 06F11-V optimization variant; also called Fab version of MAB15

binding result [1]: no binding (tested: 1000 nM (log10 3.0)) | IC50, IL-15-induced CD4+ T cell accumulation [2]: 1.8 µg/mL | IC50, IL-15-induced skin-resident CD8+ T cell accumulation [2]: 1.8 µg/mL | fold improvement of potency over VillMab-1, IL-15 stimulated M07e assay [2]: ~2 fold
B3: MAB06 (antibody, V domains shown)
VH: B1 VH
VL: B1 VL with Q27S, L32M
notes: also called Mab6; clone 06

binding result [1]: binds
B4: MAB14 (antibody, human IgG1, V domains shown)
VH: B1 VH with T28S, A33G, V37I
VL: B1 VL
notes: also called clone 14

Kd [8]: 12 nM | koff [8]: 0.00279 s⁻¹ | kon [8]: 233000 M⁻¹ s⁻¹ | binding result [3]: no binding (tested: 1000 nM) | Kd [9]: 16.5 nM | koff [9]: 0.00372 s⁻¹ | kon [9]: 226000 M⁻¹ s⁻¹ | Kd [4]: 12.4 nM | Kd [5]: 10.2 nM | Kd [6]: 12.4 nM | koff [6]: 0.0034 s⁻¹ | kon [6]: 270000 M⁻¹ s⁻¹ | binding result [7]: no binding (tested: 1000 nM)
B5: VillFab-1 (Fab, V domains shown)
VH: B1 VH with T28S, A33G, V37I, R86Q, V92I, A101Y
VL: B1 VL with Q3V, M4L, Q24S, A25G, Q27S, L32M, I105V
notes: also called Villmab-1 in human Fab format

binding result [1]: binds
B6: MAB17 (antibody, human IgG1, V domains shown)
VH: B1 VH with T28S, A33G, V37I, A101Y
VL: B1 VL
notes: also called clone 17

binding result [3]: no binding (tested: 1000 nM) | Kd [4]: 10.7 nM | Kd [5]: 7.93 nM | Kd [6]: 10.7 nM | koff [6]: 0.0046 s⁻¹ | kon [6]: 430000 M⁻¹ s⁻¹ | binding result [7]: no binding (tested: 1000 nM)
B7: FAB17 (Fab, V domains shown)
VH: B1 VH with T28S, A33G, V37I, A101Y
VL: B1 VL
notes: 06F11-V optimization variant; also called Fab version of MAB17

binding result [3]: no binding (tested: 1000 nM) | Kd [4]: 4.34 nM | Kd [5]: 3.52 nM | Kd [6]: 4.3 nM | koff [6]: 0.0037 s⁻¹ | kon [6]: 850000 M⁻¹ s⁻¹ | binding result [7]: no binding (tested: 1000 nM)
B8: FAB14 (Fab, V domains shown)
VH: B1 VH with T28S, A33G, V37I
VL: B1 VL
notes: 06F11-V optimization variant; also called Fab version of MAB14
